Measured values: publication PMC9530591 (eBioMedicine, 2022)

Target: HA1-trimer (influenza A virus H1N1 …)
Assay: SPR
Conditions: both partners purified

B1: 32D6 (antibody, V domains shown)
VH: QVQLQESGPGLVKPSETLSLTCTVSGGSVNTGSYYWSWIRQPPGKGLEWIAYSSVSGTSNYNPSLKSRVTLTVDTSKNQFSLSVRSVTAADTAVYFCARLNYDILTGYYFFDFWGQGTLVIVSS
VL: QVELTQSPSASASLGTSVKLTCTLSSGHSTYAIAWHQQRPGKGPRYLMNLSSGGRHTRGDGIPDRFSGSSSGADRYLIISSLQSEDEADYYCQTWDAGMVFGGGTKLTVL
- Kd: 44.5 pM

B2: 5J8 (antibody, V domains shown)
VH: EVQLVESGPGLVKPSDILSLTCAVSGYSISSNYYWGWIRQPPGKGLEWIGSIYHSGSTYYKPSLESRLGISVDTSKNQFSLKLSFVSAADTAVYYCARHVRSGYPDTAYYFDKWGQGTLVTVSS
VL: SYVLTQPPSVSVAPGETARISCGGNNIGTKVLHWYQQTPGQAPVLVVYDDSDRPSGIPERFSGSNSGNTATLTISRVEVGDEADYYCQVWDISTDQAVFGGGTKLTVL
- Kd: 53.1 pM
